Source: article PMC10701690, “Structural characterization of human de novo protein NCYM and its complex with a newly identified DNA aptamer using atomic force microscopy and small-angle X-ray scattering”

Key:
NCYM [1] = biological target: T1, NCYM (Homo sapiens, UniProt P40205 1-109); assay: BLI; BLI: 25 C, NCYM 25-400 nM, buffer not stated (selection buffer: 40 mM HEPES pH 7.5, 125 mM NaCl, 5 mM KCl, 1 mM MgCl2, 0.01% Tween 20); AFM: 20 mM Tris-HCl pH 7.4, 10 mM MgCl2, 1 mM EDTA, 25 C, 2 h, NCYM 100 nM, aptamer frame 10 nM; SAXS: 293 K; conditions: protein: recombinant, tags: N-terminal GST tag cleaved, 8 vector residues left (117 aa; stated for SAXS), label: 5'-biotin (BLI)
T1 sequence: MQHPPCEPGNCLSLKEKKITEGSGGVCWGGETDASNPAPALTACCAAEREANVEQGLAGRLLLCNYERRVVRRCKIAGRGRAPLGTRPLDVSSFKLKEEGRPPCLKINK

NCYM [2] = biological target: T1, NCYM; assay: BLI; text gives 299 nM as top of range; BLI: 25 C, NCYM 25-400 nM, buffer not stated (selection buffer: 40 mM HEPES pH 7.5, 125 mM NaCl, 5 mM KCl, 1 mM MgCl2, 0.01% Tween 20); AFM: 20 mM Tris-HCl pH 7.4, 10 mM MgCl2, 1 mM EDTA, 25 C, 2 h, NCYM 100 nM, aptamer frame 10 nM; SAXS: 293 K; conditions: protein: recombinant; tags: N-terminal GST tag cleaved, 8 vector residues left (117 aa; stated for SAXS); label: 5'-biotin (BLI)

B1: aptamer No. 3 (ssDNA)
DNA: GGAATGTGGTCCCTCGCAATAAATCGGGCGTTGTGGAGGGGGCGGTGGGTGGGGGGAAATGAGCCCTTTGACCCTGTAC
B1 was tested, and the Kd (NCYM [1]) was 53.9 ± 1.06 nM.

B2: aptamer No. 1 (ssDNA)
DNA: GGAATGTGGTCCCTCGCAATAAATCTATGTACGTTATTCCCCTTTGACCAATGCTGAAATGAGCCCTTTGACCCTGTAC
For B2, the Kd (NCYM [1]; stem-loops predicted by RNAfold, dimer in solution (SAXS)) was 176 ± 29.1 nM.

B3: aptamer No. 2 (ssDNA)
DNA: GGAATGTGGTCCCTCGCAATAAATCGGGGAGGGAGGGTGGGGGCGGTGGGAGGTGGAAATGAGCCCTTTGACCCTGTAC
B3 was tested, and the Kd (NCYM [2]) was 298 ± 88.7 nM.
